# Experimental data reported in publication PMC10279758.
# Target: Arabidopsis thaliana Receptor-Like Protein 30, GFP-tagged (RLP30-GFP) (Arabidopsis thaliana) (UniProt Q9MA83)
# Chain of UniProt Q9MA83 (Q9MA83 31-786): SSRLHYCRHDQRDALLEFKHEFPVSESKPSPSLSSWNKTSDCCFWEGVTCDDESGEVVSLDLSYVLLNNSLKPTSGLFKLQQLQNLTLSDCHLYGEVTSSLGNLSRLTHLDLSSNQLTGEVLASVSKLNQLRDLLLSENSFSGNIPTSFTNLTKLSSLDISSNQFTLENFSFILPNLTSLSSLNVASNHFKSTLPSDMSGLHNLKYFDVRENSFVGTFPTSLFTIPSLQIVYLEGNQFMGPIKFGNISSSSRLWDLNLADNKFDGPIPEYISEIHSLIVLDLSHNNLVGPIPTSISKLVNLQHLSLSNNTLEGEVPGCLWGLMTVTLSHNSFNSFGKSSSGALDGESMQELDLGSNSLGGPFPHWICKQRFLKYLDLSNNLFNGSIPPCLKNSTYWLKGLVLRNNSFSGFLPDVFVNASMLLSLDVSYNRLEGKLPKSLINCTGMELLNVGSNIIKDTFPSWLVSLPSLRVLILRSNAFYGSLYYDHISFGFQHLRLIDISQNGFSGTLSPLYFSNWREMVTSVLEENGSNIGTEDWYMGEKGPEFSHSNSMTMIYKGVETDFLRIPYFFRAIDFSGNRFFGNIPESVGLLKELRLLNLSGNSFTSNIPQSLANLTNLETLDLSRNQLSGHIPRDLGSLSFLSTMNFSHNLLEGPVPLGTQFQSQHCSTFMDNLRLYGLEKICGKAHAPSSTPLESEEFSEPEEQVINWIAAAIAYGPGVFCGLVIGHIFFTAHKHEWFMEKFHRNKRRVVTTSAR
substance,measurement,value
"SMALL CYSTEINE-RICH PROTEIN FROM S. SCLEROTIORUM, myc-tagged (SCP^Ss-myc) (ligand)","ethylene production in Arabidopsis Col-0 plants, half-maximal induction (EC50); the protein applied was His-tagged SCP^Ss from P. pastoris, affinity purified via His-Trap columns",26 nM
